Each block holds one substance with its values, some of them ahead of it.
Assays:
cyclosporin A (CsA) = assay: ITC
[1] = molecular target: human cyclophilin A (CypA) (human) (UniProt P62937)
[2] = test system: C[C@H](NC(=O)CCC(=O)O)C(=O)N[C@@H](C)C(=O)N1CCC[C@H]1C(=O)N[C@@H](Cc1ccccc1)C(=O)Nc1ccc([N+](=O)[O-])cc1; assay: purified protein, by the assay type; type: biochemical, Toxoplasma gondii; conditions: other: substrate AAPF, 0 °C, pH 8.0
Protocol: A trans-isomer is formed by Cyp, which is selectively cleaved by chymotrypsin, producing 4-nitroaniline, a yellow-colored product that can be measured spectrophotometrically.
The assay was performed in 50 mM Hepes, pH 8, and 100 mM NaCl at 0 °C. […] Once the temperature reached 0 °C, chymotrypsin solution, dissolved in HCl 1 mM, was added at 1.8 mg mL^–1 to start the reaction.
Successively, Cyp was added in large excess to enhance the cis-to-trans isomerization. The cis population was estimated by the difference between the final and the initial absorbance.
For all of the experiments, the slope of the catalyzed reaction was corrected for the spontaneous thermal cis–trans isomerization in the presence of the only chymotrypsin.
All measurements were repeated as triplicate, and the error was calculated as the mean standard error of the three measurements. The error associated with the parameter kcat/Km was propagated in agreement with the following equation eq 1 [drawing 1]

[3] = test system: C[C@H](NC(=O)CCC(=O)O)C(=O)N[C@@H](C)C(=O)N1CCC[C@H]1C(=O)N[C@@H](Cc1ccccc1)C(=O)Nc1ccc([N+](=O)[O-])cc1; assay: purified protein, by the assay type; conditions: other: substrate AAPF, 0 °C, pH 8.0

human cyclophilin A (CypA) (human), sequence (P62937 whole entry): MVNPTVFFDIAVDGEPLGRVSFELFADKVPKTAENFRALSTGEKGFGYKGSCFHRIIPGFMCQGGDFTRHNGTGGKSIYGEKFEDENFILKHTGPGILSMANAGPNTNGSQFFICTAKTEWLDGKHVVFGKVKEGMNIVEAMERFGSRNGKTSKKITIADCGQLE

Substance: TgCyp23 (TgCyp285760), cyclophilin from Toxoplasma gondii (enzyme)
stoichiometry N (cyclosporin A (CsA)): 1

IC50 of CsA on PPIase activity (7 nM enzyme, AAPF substrate, chymotrypsin-coupled assay, 0-30 nM CsA) [1]: 1 nM
Substance: cyclosporin A (CsA) (peptide)

Substance: TgCyp23 (Toxoplasma gondii VEG)
Km [2]: 530 ± 97 µM
kcat [2]: 2010 ± 381 s⁻¹
kcat/Km [2]: 3.8e+06 ± 200000 M⁻¹ s⁻¹

Substance: CypA (Homo sapiens)
Km [3]: 661 ± 93 µM
kcat [3]: 3290 s⁻¹
kcat/Km [3]: 4.9e+06 M⁻¹ s⁻¹

Substance: TgCyp18.4 (TgCyp289250), cyclophilin from Toxoplasma gondii (enzyme)
stoichiometry N (cyclosporin A (CsA)): 1
